Experiments:
[1] = molecular target: PTx-S1-220 R79A (Bordetella pertussis) (UniProt P04977); assay: ELISA, hu1B7 as primary antibody; EC50 as percent of the PTx reference
[2] = molecular target: PTx-S1-220 R79A (Bordetella pertussis) (UniProt P04977)
[3] = molecular target: PTx-S1E (residues 1-220, D34E, S162P, I198M) (Bordetella pertussis) (UniProt Q7WDU8); assay: SPR (BIAcore 3000), mAb 1B7 immobilised on CM5 chip, toxin injected
[4] = molecular target: pertussis toxin holotoxin (Bordetella pertussis) (UniProt P04977); assay: competition ELISA (Friguet), 5 nM antibody with PT in solution, coated PT
[5] = molecular target: pertussis toxin holotoxin (Bordetella pertussis) (UniProt P04977); assay: cell-based or functional assay

## hu1B7 scAb (humanized 1B7 single-chain Fv with C-terminal human kappa constant domain) (scFv)
[1]
  % EC50 PTX: 1%
[2]
  % EC50 PTx: 1%

## murine monoclonal antibody 1B7
[3]
  koff: 0.0018 s⁻¹

## murine monoclonal antibody 11E6
[4]
  Kd: 20 nM
[5]
  In Vitro Neutralization (nM), minimum protective concentration, CHO clustering assay: 5.2 nM
